Article PMC9926225

Legend:
[1] = target: NTD truncated λCI (K192A, residues 101 to 236), C-hexahistidine-tagged (λ phage); assay: SEC
[2] = target: RecA (1 to 335), N-heptahistidine-tagged (Escherichia coli); assay: cryo-EM structure
Sequence of RecA (1 to 335), N-heptahistidine-tagged (Escherichia coli) (A7ZQC8 2-336 limits assumed): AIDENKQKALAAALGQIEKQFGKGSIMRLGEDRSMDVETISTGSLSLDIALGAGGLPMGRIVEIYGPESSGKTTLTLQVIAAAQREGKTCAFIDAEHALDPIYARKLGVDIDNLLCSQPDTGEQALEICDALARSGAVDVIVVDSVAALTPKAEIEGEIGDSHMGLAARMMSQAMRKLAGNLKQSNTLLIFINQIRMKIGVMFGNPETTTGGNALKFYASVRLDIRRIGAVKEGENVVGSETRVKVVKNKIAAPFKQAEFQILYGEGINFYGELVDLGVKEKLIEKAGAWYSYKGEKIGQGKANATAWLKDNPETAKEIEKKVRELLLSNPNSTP

| Molecule | stoichiometry N [1] | stoichiometry N (DinI molecules per RecA protomer) [2] |
| --- | --- | --- |
| NTD truncated λCI (K192A, residues 101 to 236), C-hexahistidine-tagged (domain or fragment) | 2 |  |
| DinI (natural protein) MRIEVTIAKTSPLPAGAIDALAGELSRRIQYAFPDNEGHVSVRYAAANNLSVIGATKEDKQRISEILQETWESADDWFVSE |  | 0.5 |
